Assay results from PMC9795466.

Target: thrombin (human, UniProt P00734;P00734 328-363;364-622)
Assay: organic electrochemical transistor

Binder: TTTTTAGTCCGTGGTAGGGCAGGTTGGGGTGACT (ssDNA, 5' DBCO-TEG) [DBCO-HD22 thrombin aptamer]
- Kd: 103 ± 44 nM
